Laboratory results: patent US20250066490A1 (PROFOUNDBIO US, published 2025)

Tests used:
[1] = molecular target: T1, human CD70 expressed on the cell surface of tumor cell lines (human, UniProt P32970 1-193); experiment: cell-based or functional assay
T1 sequence (looked up): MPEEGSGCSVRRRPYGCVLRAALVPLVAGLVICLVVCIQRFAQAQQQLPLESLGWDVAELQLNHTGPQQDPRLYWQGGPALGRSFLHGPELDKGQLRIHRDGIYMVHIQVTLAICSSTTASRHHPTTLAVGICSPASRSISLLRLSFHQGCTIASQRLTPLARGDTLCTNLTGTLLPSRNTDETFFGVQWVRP

[2] = molecular target: T1, human CD70 expressed on the cell …; experiment: flow cytometry on U251 cells
Description: (§1) The lead antibodies were tested for binding to renal carcinoma cells and glioblastoma cells expressing CD70 on the cell surface by flow cytometry. […] U251 cells were cultured with MEM medium containing of 10% FBS and 1% NEAA+1 mM sodium pyruvate. DBTRG-05MG cells were cultured with DMEM medium (Gibco, Cat #C11995500BT) containing of 10% FBS. Each of the lead antibodies and the controls were incubated for 30 mins with the different cell lines (3×10⁵ cells per well) in 0.2 ml FACS buffer (1×PBS with 0.1% BSA) at 4° C. Then, the cells were pelleted, washed, and incubated at 4° C. for 30 mins with 100 μl of 1:200 diluted PE-conjugated anti human Fc (Abcam, Ab98596) in FACS buffer. The cells were pelleted again, washed with PBS, resuspended in FACS buffer and analyzed by flow cytometer (Beckman, CytoFLEX).
(§2) Antibodies 2H8 and 2D2 had slightly higher binding ability to the cell lines than that of antibody 69A7.

[3] = molecular target: T1, human CD70 expressed on the cell …; experiment: flow cytometry on 786-O cells
Description: as §1, §2

[4] = molecular target: T1, human CD70 expressed on the cell …; experiment: flow cytometry on Caki-1 cells
Description: as §1, §2

[5] = molecular target: T1, human CD70 expressed on the cell …; experiment: flow cytometry on DBTRG-05MG cells
Description: as §1, §2

[6] = molecular target: T2, CD70 ECD (antigen immobilized on the CM5 chip) (UniProt P32970 39-193); experiment: SPR (Biacore T200), CD70 ECD on CM5 chip, IgG as analyte
T2 construct: extracellular domain; also called CD70 antigen
T2 sequence (looked up): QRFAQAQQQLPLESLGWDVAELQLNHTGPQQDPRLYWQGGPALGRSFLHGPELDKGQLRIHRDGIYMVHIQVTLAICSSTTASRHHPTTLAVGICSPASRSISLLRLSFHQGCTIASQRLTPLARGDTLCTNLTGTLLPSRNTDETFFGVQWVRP
Description: (§3) The immobilization of antigen CD70 ECD was performed at 25° C. with HBS-EP as the running buffer. Sensor chip surface of flow cells 1, 4 were activated by freshly mixed 50 mmol/L N-Hydroxy succinimide (NHS) and 200 mmol/L 1-ethyl-3-(3-dimethylaminopropyl) carbodiimide hydrochloride (EDC) for 420s (10 μL/min). Afterwards, CD70 antigen diluted in 10 mmol/L NaAC (pH 4.5) was injected into flow cell 4 to achieve conjugation of the appropriate Response Unit, while flow cell 1 was set as a blank. After the amine coupling reaction, the remaining active coupling sites on chip surface were blocked by 420s injection of 1 mol/L ethanolamine hydrochloride.
(§4) The assay was performed at 25° C. and the running buffer was HBS-EP. Diluted antibodies were injected over the surface of flow cells 1 and 4 during the association phase, followed by injecting running buffer as the dissociation phase. All the data were processed using Biacore T200 Evaluation software version 3.1. Flow cell 1 and a blank injection of buffer in each cycle were used as a double reference for Response Units subtraction. Kinetic data of the interaction between the antibodies and CD70 antigen were obtained through affinity measurement.

[7] = molecular target: T2, CD70 ECD (antigen immobilized on the …); experiment: SPR (Biacore T200), CD70 ECD on CM5 chip; upper end tied to 2A4P0L1 by the KD values of Table 8
Description: as §3, §4

[8] = molecular target: T1, human CD70 expressed on the cell …; experiment: flow cytometry on U251 cells, PE anti-human Fc, MFI; same fit as Table 6, which prints it in nM
Description: as §1, §2

[9] = molecular target: T3, human CD70 recombinant protein (human, UniProt P32970 39-193, limits assumed); experiment: ELISA, IgG titrated on coated human CD70 recombinant protein (2 µg/ml), anti-human Fc-HRP, OD450
T3 construct: May be the same reagent as ACRO CDL-H5246; also called CD70 protein
T3 sequence (looked up): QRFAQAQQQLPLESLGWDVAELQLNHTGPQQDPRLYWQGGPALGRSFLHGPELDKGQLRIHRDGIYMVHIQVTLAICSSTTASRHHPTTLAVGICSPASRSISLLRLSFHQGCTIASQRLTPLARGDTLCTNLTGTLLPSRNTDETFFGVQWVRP
Description: (§5) The binding specificity of the CD70 antibodies was tested by ELISA according to a standard protocol. Briefly, 96-well micro-plates were coated with 2 μg/ml of human or cynomolgus CD70 recombinant protein in PBS at 100 μl per well and incubated overnight at 4° C. The plates were washed twice with TBS+0.5% Tween20. 200 μL of blocking buffer (2% BSA in PBS) was added to each well, and the plates were incubated at 37° C. for 2 hours. The plates were washed using the wash buffer mentioned above. Serially diluted antibodies were added to the ELISA plates using 100 μl per well, and the plates were incubated for 1 hour at room temperature. Then plates were washed 3 times. HRP conjugated anti-human Fc antibody solution (Sigma, I18885-2ML, diluted with blocking buffer) was added to the plates using 100 μl per well. The plates were incubated at room temperature for 1 hour and then washed 3 times. Then the TMB solution was added to plates using 100 μl per well and the plates were placed at RT for 5-15 mins. Then the stop solution (2M H2SO4) was added using 50 μl per well. The absorbance was measured at A450 and A630.

[10] = molecular target: T1, human CD70 expressed on the cell …; experiment: flow cytometry on 786-O cells, PE anti-human Fc, MFI; same fit as Table 6, which prints it in nM
Description: as §1, §2

[11] = molecular target: T1, human CD70 expressed on the cell …; experiment: flow cytometry on Caki-1 cells, PE anti-human Fc, MFI; same fit as Table 6, which prints it in nM
Description: as §1, §2

[12] = molecular target: T4, cynomolgus CD70 recombinant protein (cynomolgus, UniProt A0A2K5WTU9 39-190); experiment: ELISA, IgG titrated on coated cynomolgus CD70 recombinant protein (2 µg/ml), anti-human Fc-HRP, OD450
T4 construct: also called cyno-antigen; cynomolgus CD70 protein
T4 sequence: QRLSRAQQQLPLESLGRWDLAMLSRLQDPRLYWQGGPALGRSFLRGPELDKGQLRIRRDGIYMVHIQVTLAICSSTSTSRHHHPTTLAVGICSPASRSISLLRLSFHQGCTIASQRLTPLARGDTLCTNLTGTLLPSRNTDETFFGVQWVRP
Description: as §5

[13] = molecular target: T1, human CD70 expressed on the cell …; experiment: flow cytometry on DBTRG-05MG cells, PE anti-human Fc, MFI; same fit as Table 6, which prints it in nM
Description: as §1, §2

Internalization rate (%) on 786-O [1]: 61%
Internalization rate (%) on Caki-1 [1]: 22%
EC50 [2]: 4.72 nM
EC50 [3]: 2.98 nM
EC50 [4]: 5.44 nM
EC50 [5]: 5.84 nM
Kd [6]: 38.6 nM
koff [6]: 0.00197 s⁻¹
kon [6]: 51000 M⁻¹ s⁻¹
fold improved affinity against parent antibody 69A7 [7]: 3 to 8 fold
EC50 [8]: 0.708 µg/mL
EC50 [9]: 0.263 µg/mL
EC50 [10]: 0.447 µg/mL
EC50 [11]: 0.816 µg/mL
EC50 [12]: 0.00335 µg/mL
EC50 [13]: 0.876 µg/mL
B1: 2A4P0L1, full IgG (antibody, V domains shown)
VH: QVQLQESGPGLVKPSETLSLTCTVSGGSVSSDYYYWSWIRQPPGKGLEWLGYIYYSGSTNYNPSLKSRVTISVDTSKNQFSLKLRSVTTADTAVYYCARGDGDYGGNVFPYWGQGTLVTVSS
VL: EIVLTQSPATLSLSPGERATLSCRASQSVSSYLAWYQQKPGQAPRLLIFDASNRATGIPARFSGSGSGTDFTLTISSLEPEDFAVYYCQQRLKFPLTFGGGTKVEIK
